BINDING and FRET efficiency data for one molecule are collected here from publication PMC10375638.

In this assay the target is T1, …3 (SEP3) fused to mVenus, expressed in N. benthamiana (Arabidopsis thaliana), O22456.
T1 chain: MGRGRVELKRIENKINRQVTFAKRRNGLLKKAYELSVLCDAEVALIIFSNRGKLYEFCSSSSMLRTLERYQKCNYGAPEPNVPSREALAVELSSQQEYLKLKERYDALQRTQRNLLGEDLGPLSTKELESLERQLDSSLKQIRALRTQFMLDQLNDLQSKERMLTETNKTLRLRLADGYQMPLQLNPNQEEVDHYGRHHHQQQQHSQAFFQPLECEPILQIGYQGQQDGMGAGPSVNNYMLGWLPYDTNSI
The assay is described as follows: FRET or BRET; FLIM-FRET with one pattern analysis (OPA) in nuclei of transiently expressing N. benthamiana leaf epidermis cells; donor mVenus fusion, acceptor mCherry fusion; BINDING = relative amplitude of the FRET fraction; nucleoli excluded; FRET efficiency only for nuclei with BINDING above 10%. Conditions: remark: other sources report otherwise.

B1: …3 (SEP3) fused to mVenus, expressed in N. benthamiana, O22456 1-251 (natural protein)
chain: MGRGRVELKRIENKINRQVTFAKRRNGLLKKAYELSVLCDAEVALIIFSNRGKLYEFCSSSSMLRTLERYQKCNYGAPEPNVPSREALAVELSSQQEYLKLKERYDALQRTQRNLLGEDLGPLSTKELESLERQLDSSLKQIRALRTQFMLDQLNDLQSKERMLTETNKTLRLRLADGYQMPLQLNPNQEEVDHYGRHHHQQQQHSQAFFQPLECEPILQIGYQGQQDGMGAGPSVNNYMLGWLPYDTNSI
In turn, B1 returned a BINDING of 28.1% and an FRET efficiency of 38.5%.
